According to IntAct's records for PubMed 18203820:

Target: djb11_human DNAJB11 (UniProt Q9UBS4)
Sequence (Q9UBS4 whole entry): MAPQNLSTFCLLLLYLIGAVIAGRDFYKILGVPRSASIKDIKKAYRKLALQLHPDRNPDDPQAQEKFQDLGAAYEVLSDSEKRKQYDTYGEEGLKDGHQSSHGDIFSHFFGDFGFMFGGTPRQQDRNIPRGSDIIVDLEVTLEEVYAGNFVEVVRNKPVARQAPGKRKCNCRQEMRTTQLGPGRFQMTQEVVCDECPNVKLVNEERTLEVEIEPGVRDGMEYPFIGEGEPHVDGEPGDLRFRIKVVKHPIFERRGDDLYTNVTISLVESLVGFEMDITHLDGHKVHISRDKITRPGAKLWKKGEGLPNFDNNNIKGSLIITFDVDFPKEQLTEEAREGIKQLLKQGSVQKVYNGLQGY

- effect of a mutation on the interaction: disrupting interaction
Substance: Endoplasmic reticulum chaperone BiP (Mesocricetus auratus (Golden hamster)), P07823 R197E
